We go through five molecules from patent publication US20170298395A1, “AUTOTROPHIC HYDROGEN BACTERIA AND USES THEREOF” (Ohio State Innovation Foundation, priority 2011, published 2017).

Changes are numbered by the printed parent chain. In names and notes the source's numbering stands. Like-named read-outs stand apart in the source and are kept apart here.

The test system of data set [1] is cbbL transcript. Type of data set: cell-based, Ralstonia eutropha. Particulars: chemoautotrophic growth.
For data set [2], the system named is RubisCO. The data set is classed as cell-based, Ralstonia eutropha. Particulars: for Chemoheterotrophic RubisCO activity: Table 12, chemoheterotrophic (repressed) growth.
The test system of data set [3] is Ralstonia eutropha cbbR deletion reporter strain. The data set is classed as cell-based. Particulars: chemoautotrophic, CO2/H2/O2 atmosphere, minimal media.
The subject of data set [4] is cbb promoter. Type of data set: cell-based, Ralstonia eutropha. Particulars: for Chemoheterotrophic β-galactosidase activity: Table 12, chemoheterotrophic (repressed) growth.
Data set [5] deals with R. eutropha. The data set is described as follows: Relative promoter strength / gene expression in R. eutropha. Particulars: autotrophic growth conditions. The data set is classed as cell-based. As to the method:
The lac and tac promoters are E. coli promoters, but have been used to drive gene expression of other genes in R. eutropha. The pha promoter is a native R. eutropha promoter and drives expression of genes involved in polyhydroxybutyrate (PHB) production. The relative strength of these promoters in R. eutropha was determined. The pha promoter was 1.2 times stronger than the lac promoter and that the tac promoter was 2.1 times stronger than the lac promoter (1). The cbbM and cbbL promoters were also examined. The cbbM and cbbL promoters are strong promoters which drive expression of the genes that encode for RubisCO in Rhodosporilium rubrum/Rhodobacter sphaeroides/Rhodobacter capsulatus and R. eutropha, respectively. […] Each promoter was placed in the vector pBBR1MCS3, and the ability of these gene expression vectors was assessed (Table 4). The pBBR1 vector has Accession No. U02374 (4707 bp). The pBBR1MCS-3 vector has Accession No. U25059 (5228 bp). Plasmid pRPS-MCS3 (SEQ ID NO: 36) (see Journal of Molecular Biology, 331(3): 557-569 (2003)) derives from plasmid pBBR1-MCS3.
Vectors were made with the native cbbL and constitutive cbbL promoters. The cbbL promoter is native to R. eutropha and is highly expressed and regulated. […] To construct strains with a constitutive cbbL promoter, the lac promoter within the pBBR1MCS-3 vector was removed and replaced by the constitutive cbbL promoter. […]

Where [6] appears, read: Table 9, chemoautotrophic growth conditions.
Where [7] appears, read: Table 12, chemoautotrophic (induced) growth.

B1: D144N (protein)
chain: MSSFLRALTLRQLQIFVTVARHASFVRAAEELHLTQPAVSMQVKQLESVVGMALFERVKGQLTLTEPGDRLLHHASRILGEVKDAEEGLQAVKDVEQGSITIGLISTSKYFAPKLLAGFTALHPGVDLRIAEGNRETLLRLLQNNAIDLALMGRPPRELDAVSEPIAAHPHVLVASPRHPLHDAKGFDLQELRHETFLLREPGSGTRTVAEYMFRDHLFTPAKVITLGSNETIKQAVMAGMGISLLSLHTLGLELRTGEIGLLDVAGTPIERIWHVAHMSSKRLSPASESCRAYLLEHTAEFLGREYGGLMPGRRVA
In the case of B1, in data set [1] (26 cycles of PCR), the “increase in transcription over wild type CbbR (RT-PCR, FIG. 22)” value is given as 1.8 fold. In addition, the “increase in cbb transcript over wild type CbbR (RT-PCR, FIG. 21)” value in data set [1] (OD 0.2) worked out at 2.4 fold. In data set [2] (CA growth conditions), the “level of RubisCO relative to wild-type CbbR” value came out at 2.2 fold. Further, the “Chemoautotrophic RubisCO activity” value in data set [2] (setting [6]) is listed as 188 nmol/min/mg of protein; in data set [2] (setting [7]), 314 nmol/min/mg of protein. Also, the “Chemoheterotrophic RubisCO activity” value in data set [2] is 26 nmol/min/mg of protein. The “Doubling Time” value in data set [3] turned out to be 6.8 h. The “Chemoautotrophic β-galactosidase activity” value in data set [4] (setting [6]) and in data set [4] (setting [7]) was 6932 nmol/min/mg of protein each time. Further, the “Chemoheterotrophic β-galactosidase activity” value in data set [4] was 809 nmol/min/mg of protein.

B2: L79F (protein)
chain: B1 chain with L79F, N144D
On to B2, for which the “Chemoautotrophic RubisCO activity” value is 209 nmol/min/mg of protein in data set [2] (setting [6]) and 304 nmol/min/mg of protein in data set [2] (setting [7]). In data set [2], the “Chemoheterotrophic RubisCO activity” value is reported as 4 nmol/min/mg of protein. Besides, in data set [3], the “Doubling Time” value is given as 5.6 h. Also, the “Chemoautotrophic β-galactosidase activity” value in data set [4] (setting [6]) and in data set [4] (setting [7]) was 6840 nmol/min/mg of protein throughout. Also, the “Chemoheterotrophic β-galactosidase activity” value in data set [4] was 218 nmol/min/mg of protein.

B3: E87K/G242S (protein)
chain: B1 chain with E87K, N144D, G242S
Regarding B3, the “Chemoautotrophic RubisCO activity” value is listed as 128 nmol/min/mg of protein in data set [2] (setting [6]) and 198 nmol/min/mg of protein in data set [2] (setting [7]). The “Chemoheterotrophic RubisCO activity” value in data set [2] is 6 nmol/min/mg of protein. Besides, the “Doubling Time” value in data set [3] came to 6.0 h. For the same molecule, the “Chemoautotrophic β-galactosidase activity” value in data set [4] (setting [6]) is on record as 4312 nmol/min/mg of protein; in data set [4] (setting [7]), 4820 nmol/min/mg of protein. In data set [4], the “Chemoheterotrophic β-galactosidase activity” value was 303 nmol/min/mg of protein.

B4: G205D (protein)
chain: B1 chain with N144D, G205D
On to B4, for which the “Chemoautotrophic RubisCO activity” value in data set [2] (setting [6]) is 133 nmol/min/mg of protein; in data set [2] (setting [7]), 54 nmol/min/mg of protein. Besides, in data set [2], the “Chemoheterotrophic RubisCO activity” value is 10 nmol/min/mg of protein. In addition, in data set [3], the “Doubling Time” value was 7.8 h. In addition, the “Chemoautotrophic β-galactosidase activity” value is given as 2634 nmol/min/mg of protein in data set [4] (setting [6]) and 2241 nmol/min/mg of protein in data set [4] (setting [7]). The “Chemoheterotrophic β-galactosidase activity” value in data set [4] is given as 488 nmol/min/mg of protein.

B5: constitutive cbbL promoter: constitutive R. eutropha cbbL promoter, SEQ ID NO: 30 (nucleic acid)
DNA: GCAACTGGCGAAGGGTAAGGGCGCGCAGGAAGGACGACATGGGCGGTTGGGGGCGGCTTTGGATGGTCCCGTGATGTGCAGCTTGGTCCGCACTTAAGGGATTGCTTATACAGGGGCTAAGAATATCTGAATTGACATTATGTGGGTGGGCTTATATAATTGCATCAACGCAGCAGCCAAGACGCTCAACCACGCAAGGAGACAAGC
As to B5, the “increase in gene expression” value in data set [5] turned out to be 2.4 fold.
